T1: IgG1 Fc fragment with CH3 modification E356K/K392D/D399K/K409D (SEQ ID NO: 75)
T1 chain: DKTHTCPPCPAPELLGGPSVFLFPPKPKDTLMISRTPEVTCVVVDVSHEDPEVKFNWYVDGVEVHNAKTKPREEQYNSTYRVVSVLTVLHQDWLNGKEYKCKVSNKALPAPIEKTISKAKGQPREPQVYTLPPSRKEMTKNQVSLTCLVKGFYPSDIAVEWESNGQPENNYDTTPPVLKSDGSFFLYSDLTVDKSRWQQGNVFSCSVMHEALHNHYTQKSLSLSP

T2: IgG1 Fc fragment with CH3 modification Q347R/K360E/D399V/F405T/K409W (SEQ ID NO: 66)
T2 chain: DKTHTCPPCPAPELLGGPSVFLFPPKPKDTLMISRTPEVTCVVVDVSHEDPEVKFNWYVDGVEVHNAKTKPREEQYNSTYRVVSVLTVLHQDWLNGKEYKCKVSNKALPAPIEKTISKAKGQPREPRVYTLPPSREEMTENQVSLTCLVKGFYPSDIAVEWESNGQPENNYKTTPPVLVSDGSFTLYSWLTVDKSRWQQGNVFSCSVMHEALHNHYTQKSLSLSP

T3: IgG1 Fc fragment with CH3 modification Y349C/E357C/K392D/D399K (SEQ ID NO: 73)
T3 chain: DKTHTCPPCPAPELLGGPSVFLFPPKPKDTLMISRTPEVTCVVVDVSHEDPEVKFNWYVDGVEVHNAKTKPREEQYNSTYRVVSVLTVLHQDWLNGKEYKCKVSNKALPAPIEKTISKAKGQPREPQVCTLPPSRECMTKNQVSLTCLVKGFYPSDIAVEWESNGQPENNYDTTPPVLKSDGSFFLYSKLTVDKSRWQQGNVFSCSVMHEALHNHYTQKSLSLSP

T4: IgG1 Fc fragment with CH3 modification E356K/D399K/K409E/K439E (SEQ ID NO: 68)
T4 chain: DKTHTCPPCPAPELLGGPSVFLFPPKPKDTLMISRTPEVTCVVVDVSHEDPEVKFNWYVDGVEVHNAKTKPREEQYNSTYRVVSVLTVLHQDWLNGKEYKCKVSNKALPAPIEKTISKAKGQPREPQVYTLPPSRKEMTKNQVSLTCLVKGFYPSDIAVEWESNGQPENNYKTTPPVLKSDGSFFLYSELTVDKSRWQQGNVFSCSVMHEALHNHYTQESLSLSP


Legend:
Test in all cases: SEC area ratio of heteromultimer after coexpression of full-length heavy chain, light chain and Fc fragment in Expi293F
[1] = biological target: T1, IgG1 Fc fragment with CH3 modification …
[2] = biological target: IgG1 Fc fragment with CH3 modification T394F/F405A (SEQ ID NO: 67)
[3] = biological target: T2, IgG1 Fc fragment with CH3 modification …
[4] = biological target: T3, IgG1 Fc fragment with CH3 modification …
[5] = biological target: T4, IgG1 Fc fragment with CH3 modification …
[6] = biological target: IgG1 Fc fragment with CH3 modification T394W/F405A (SEQ ID NO: 64)

| Protein | heterodimer formation ratio (%) [1] | heterodimer formation ratio (%) [2] | heterodimer formation ratio (%) [3] | heterodimer formation ratio (%) [4] | heterodimer formation ratio (%) [5] | heterodimer formation ratio (%) [6] |
| --- | --- | --- | --- | --- | --- | --- |
| full-length IgG heavy chain with CH3 modification Y349C/E357C/K392D/D399K (SEQ ID NO: 51), coexpressed with light chain SEQ ID NO: 61 (protein) chain 1: QVQLQESGPGLVRPSQTLSLTCTVSGYSITSDHAWSWVRQPPGRGLEWIGYISYSGITTYNPSLKSRVTMLRDTSKNQFSLRLSSVTAADTAVYYCARSLARTTAMDYWGQGSLVTVSSASTKGPSVFPLAPSSKSTSGGTAALGCLVKDYFPEPVTVSWNSGALTSGVHTFPAVLQSSGLYSLSSVVTVPSSSLGTQTYICNVNHKPSNTKVDKRVEPKSCDKTHTCPPCPAPELLGGPSVFLFPPKPKDTLMISRTPEVTCVVVDVSHEDPEVKFNWYVDGVEVHNAKTKPREEQYNSTYRVVSVLTVLHQDWLNGKEYKCKVSNKALPAPIEKTISKAKGQPREPQVCTLPPSRECMTKNQVSLTCLVKGFYPSDIAVEWESNGQPENNYDTTPPVLKSDGSFFLYSKLTVDKSRWQQGNVFSCSVMHEALHNHYTQKSLSLSP chain 2: not shown | 0% | 0% | 0% | 56% | 0% | 0% |
| full-length IgG heavy chain with CH3 modification T350V/L351Y/T366L/K392L/T394W/F405A/Y407V (SEQ ID NO: 60), coexpressed with light chain SEQ ID NO: 61 (protein) chain 1: QVQLQESGPGLVRPSQTLSLTCTVSGYSITSDHAWSWVRQPPGRGLEWIGYISYSGITTYNPSLKSRVTMLRDTSKNQFSLRLSSVTAADTAVYYCARSLARTTAMDYWGQGSLVTVSSASTKGPSVFPLAPSSKSTSGGTAALGCLVKDYFPEPVTVSWNSGALTSGVHTFPAVLQSSGLYSLSSVVTVPSSSLGTQTYICNVNHKPSNTKVDKRVEPKSCDKTHTCPPCPAPELLGGPSVFLFPPKPKDTLMISRTPEVTCVVVDVSHEDPEVKFNWYVDGVEVHNAKTKPREEQYNSTYRVVSVLTVLHQDWLNGKEYKCKVSNKALPAPIEKTISKAKGQPREPQVYVYPPSREEMTKNQVSLLCLVKGFYPSDIAVEWESNGQPENNYLTWPPVLDSDGSFALVSKLTVDKSRWQQGNVFSCSVMHEALHNHYTQKSLSLSP chain 2: not shown | 0% | 4% | 0% | 0% | 0% | 6% |
| full-length IgG heavy chain with CH3 modification E356K/K392D/D399K/K409D (SEQ ID NO: 56), coexpressed with light chain SEQ ID NO: 61 (protein) chain 1: QVQLQESGPGLVRPSQTLSLTCTVSGYSITSDHAWSWVRQPPGRGLEWIGYISYSGITTYNPSLKSRVTMLRDTSKNQFSLRLSSVTAADTAVYYCARSLARTTAMDYWGQGSLVTVSSASTKGPSVFPLAPSSKSTSGGTAALGCLVKDYFPEPVTVSWNSGALTSGVHTFPAVLQSSGLYSLSSVVTVPSSSLGTQTYICNVNHKPSNTKVDKRVEPKSCDKTHTCPPCPAPELLGGPSVFLFPPKPKDTLMISRTPEVTCVVVDVSHEDPEVKFNWYVDGVEVHNAKTKPREEQYNSTYRVVSVLTVLHQDWLNGKEYKCKVSNKALPAPIEKTISKAKGQPREPQVYTLPPSRKEMTKNQVSLTCLVKGFYPSDIAVEWESNGQPENNYDTTPPVLKSDGSFFLYSDLTVDKSRWQQGNVFSCSVMHEALHNHYTQKSLSLSP chain 2: not shown | 56% | 0% | 0% | 0% | 53% | 0% |
| full-length IgG heavy chain with CH3 modification E345R/Q347R/K360D/T366V/D399M/Y407A/K409V (SEQ ID NO: 55), coexpressed with light chain SEQ ID NO: 61 (protein) chain 1: QVQLQESGPGLVRPSQTLSLTCTVSGYSITSDHAWSWVRQPPGRGLEWIGYISYSGITTYNPSLKSRVTMLRDTSKNQFSLRLSSVTAADTAVYYCARSLARTTAMDYWGQGSLVTVSSASTKGPSVFPLAPSSKSTSGGTAALGCLVKDYFPEPVTVSWNSGALTSGVHTFPAVLQSSGLYSLSSVVTVPSSSLGTQTYICNVNHKPSNTKVDKRVEPKSCDKTHTCPPCPAPELLGGPSVFLFPPKPKDTLMISRTPEVTCVVVDVSHEDPEVKFNWYVDGVEVHNAKTKPREEQYNSTYRVVSVLTVLHQDWLNGKEYKCKVSNKALPAPIEKTISKAKGQPRRPRVYTLPPSREEMTDNQVSLVCLVKGFYPSDIAVEWESNGQPENNYKTTPPVLMSDGSFFLASVLTVDKSRWQQGNVFSCSVMHEALHNHYTQKSLSLSP chain 2: not shown | 0% | 0% | 6% | 0% | 0% | 0% |
| full-length IgG heavy chain with CH3 modification E345R/K360E/D399M/Y407A/K409V (SEQ ID NO: 58), coexpressed with light chain SEQ ID NO: 61 (protein) chain 1: QVQLQESGPGLVRPSQTLSLTCTVSGYSITSDHAWSWVRQPPGRGLEWIGYISYSGITTYNPSLKSRVTMLRDTSKNQFSLRLSSVTAADTAVYYCARSLARTTAMDYWGQGSLVTVSSASTKGPSVFPLAPSSKSTSGGTAALGCLVKDYFPEPVTVSWNSGALTSGVHTFPAVLQSSGLYSLSSVVTVPSSSLGTQTYICNVNHKPSNTKVDKRVEPKSCDKTHTCPPCPAPELLGGPSVFLFPPKPKDTLMISRTPEVTCVVVDVSHEDPEVKFNWYVDGVEVHNAKTKPREEQYNSTYRVVSVLTVLHQDWLNGKEYKCKVSNKALPAPIEKTISKAKGQPRRPQVYTLPPSREEMTENQVSLTCLVKGFYPSDIAVEWESNGQPENNYKTTPPVLMSDGSFFLASVLTVDKSRWQQGNVFSCSVMHEALHNHYTQKSLSLSP chain 2: not shown | 0% | 0% | 4% | 0% | 0% | 0% |

From patent US20260217835
